# Reference: US20250230251A1 (Bristol-Myers Squibb, published 2025)
# Changes are numbered by the printed parent chain.
# T1: huIL-18Rβ-HisAvi (human, UniProt O95256 20-356, biotinylated in the Octet blocking assay)
# T1 construct: Soluble analyte in all SPR runs; captured on streptavidin sensors in the Octet assay; also called human IL-18Rβ; human IL-18Rβ-Avi-His
# T1 sequence: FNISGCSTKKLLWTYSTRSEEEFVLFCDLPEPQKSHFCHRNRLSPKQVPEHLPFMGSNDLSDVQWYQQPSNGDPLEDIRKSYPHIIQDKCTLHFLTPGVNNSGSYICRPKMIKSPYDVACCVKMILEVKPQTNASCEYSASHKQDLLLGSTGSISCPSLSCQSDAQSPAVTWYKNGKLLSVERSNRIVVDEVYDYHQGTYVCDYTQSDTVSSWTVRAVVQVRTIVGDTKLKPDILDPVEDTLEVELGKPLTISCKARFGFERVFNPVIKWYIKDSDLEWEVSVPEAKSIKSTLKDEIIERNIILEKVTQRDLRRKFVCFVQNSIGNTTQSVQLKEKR
# T2: cyIL-18Rβ-HisAvi (cynomolgus monkey)
# T2 construct: Soluble analyte in SPR; also called cyno IL-18Rβ; cynomolgus monkey IL-18Rβ
# T2 chain: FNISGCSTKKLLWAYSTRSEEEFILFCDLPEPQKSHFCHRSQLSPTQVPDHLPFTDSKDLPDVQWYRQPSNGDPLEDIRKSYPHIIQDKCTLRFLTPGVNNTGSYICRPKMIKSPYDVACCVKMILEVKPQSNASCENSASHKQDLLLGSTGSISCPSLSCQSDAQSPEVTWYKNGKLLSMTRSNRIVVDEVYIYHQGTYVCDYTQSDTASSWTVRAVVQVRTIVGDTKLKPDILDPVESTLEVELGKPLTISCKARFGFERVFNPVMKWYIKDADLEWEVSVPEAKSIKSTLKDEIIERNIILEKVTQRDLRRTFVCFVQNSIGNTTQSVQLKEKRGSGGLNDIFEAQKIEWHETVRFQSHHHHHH
# T3: human IL-18Rβ on cells (human, UniProt O95256 20-599)
# T3 sequence: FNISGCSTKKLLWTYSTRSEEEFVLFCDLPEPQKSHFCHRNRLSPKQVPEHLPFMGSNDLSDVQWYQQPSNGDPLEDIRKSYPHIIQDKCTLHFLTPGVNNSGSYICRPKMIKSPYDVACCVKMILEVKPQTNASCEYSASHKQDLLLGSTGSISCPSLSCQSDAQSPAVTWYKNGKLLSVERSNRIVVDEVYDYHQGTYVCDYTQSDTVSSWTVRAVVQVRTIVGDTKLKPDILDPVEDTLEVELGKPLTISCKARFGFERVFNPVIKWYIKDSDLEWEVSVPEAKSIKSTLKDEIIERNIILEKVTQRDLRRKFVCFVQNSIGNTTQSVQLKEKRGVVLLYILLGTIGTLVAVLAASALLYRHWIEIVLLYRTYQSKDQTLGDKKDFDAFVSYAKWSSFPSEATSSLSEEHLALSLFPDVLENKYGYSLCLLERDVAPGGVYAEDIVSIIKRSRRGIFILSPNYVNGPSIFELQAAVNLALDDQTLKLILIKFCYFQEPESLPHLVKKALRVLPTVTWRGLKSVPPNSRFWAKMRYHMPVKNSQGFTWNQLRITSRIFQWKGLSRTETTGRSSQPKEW
# B1: P21 (antibody, human IgG1, kappa, V domains shown)
# VH: QVQLQQSGPGLVKPSETLSLTCTVSGGSISNYYWTWIRQPPGKGLEWIGYISDSGSTNYNPSLKSRVTISVDTSKNQFSLKLSSVTAADTAVYYCARETIVVRGFYFYVMDVWGQGTTVTVSS
# VL: AIQLTQSPSSLSASVGDRVTITCRASQGISSALAWYQQRPGKAPKLLIYDASNWESGVPSRFSGSGSGTDFTLTISSLQPEDFATYYCQQFNSYPWTFGQGTKVEIKR
# notes: Human IgG
# B2: P20 (antibody, human IgG1, kappa)
# heavy: QVQLQQSGPGLVKPSETLSLTCTVSGGSINNYYWSWIRQPPGKGLEWIGYIFYSGTTNYNPSLKSRVTISVDTSKNQFSLKLSSVTAADTAVYYCARDVGIAARNSYYYVMDVWGQGTTVTVSSASTKGPSVFPLAPSSKSTSGGTAALGCLVKDYFPEPVTVSWNSGALTSGVHTFPAVLQSSGLYSLSSVVTVPSSSLGTQTYICNVNHKPSNTKVDKRVEPKSCDKTHTCPPCPAPEAEGAPSVFLFPPKPKDTLMISRTPEVTCVVVDVSHEDPEVKFNWYVDGVEVHNAKTKPREEQYNSTYRVVSVLTVLHQDWLNGKEYKCKVSNKALPAPIEKTISKAKGQPREPQVYTLPPSREEMTKNQVSLTCLVKGFYPSDIAVEWESNGQPENNYKTTPPVLDSDGSFFLYSKLTVDKSRWQQGNVFSCSVMHEALHNHYTQKSLSLSPG
# light: AIQLTQSPSSLSASVGDRVTITCRASQGISSALAWYQQKPGKAPKFLIYDASSLESGVPSRFSGSGSGTDFTLTISSLQPEDFATYYCQQFNSYPITFGQGTRLEIKRTVAAPSVFIFPPSDEQLKSGTASVVCLLNNFYPREAKVQWKVDNALQSGNSQESVTEQDSKDSTYSLSSTLTLSKADYEKHKVYACEVTHQGLSSPVTKSFNRGEC
# notes: Human IgG
# B3: P20-V1 (antibody, human IgG1, kappa, V domains shown)
# VH: QVQLQESGPGLVKPSETLSLTCTVSGGSINNYYWSWIRQPPGKGLEWIGYIFYSGTTNYNPSLKSRVTISVDTSKNQFSLKLSSVTAADTAVYYCARDVGIAARNSYYYVMDVWGQGTTVTVSS
# VL: B1 VL with R39K, L46F, D50E, N53S, W54L, W96I, K103R, V104L
# notes: Variant of P20
# Assays:
# [1] = molecular target: T1, huIL-18Rβ-HisAvi; assay: SPR screen, 1:1 fit
# [2] = molecular target: T2, cyIL-18Rβ-HisAvi; assay: SPR screen, 1:1 fit
# [3] = molecular target: T3, human IL-18Rβ on cells; assay: cell-based or functional assay
# [4] = molecular target: T1, huIL-18Rβ-HisAvi; assay: SPR T200, pH 7; control
# [5] = molecular target: T1, huIL-18Rβ-HisAvi; assay: SPR T200, pH 5 against pH 7.4
# [6] = molecular target: T1, huIL-18Rβ-HisAvi; assay: SPR T200, mAb on anti-hFc, 37C, pH 5
# [7] = molecular target: T1, huIL-18Rβ-HisAvi; assay: SPR T200, pH 7.4; sample stored at pH 8, T0
# [8] = molecular target: T1, huIL-18Rβ-HisAvi; assay: SPR T200, pH 7.4; sample stored at pH 6, 4 w 4C
# [9] = molecular target: T1, huIL-18Rβ-HisAvi; assay: SPR T200, pH 7.4; sample stored at pH 6, 4 w 40C
# [10] = molecular target: the molecule itself; assay: clone self-interaction BLI, antibody on AHQ sensor against 1 µM of the same antibody
# [11] = molecular target: T3, human IL-18Rβ on cells; assay: cell-based or functional assay; remark: listed apart in the source
# [12] = molecular target: T3, human IL-18Rβ on cells; assay: cell-based or functional assay; remark: listed apart in the source
# [13] = molecular target: T1, huIL-18Rβ-HisAvi; assay: SPR T200, pH 7; sample 2 w 40C
binder,measurement,setting,value
B1,Kd,[1],1.4 nM
same,Kd,[2],18 nM
same,"IC50, LPS+IL-12 dependent IFNg production, human whole blood",[3],0.3 nM
same,"y-max, LPS+IL-12 dependent IFNg production, human whole blood",[3],98%
same,Kd,[4],0.2 nM
same,koff,[4],7e-05 s⁻¹
same,kon,[4],350000 M⁻¹ s⁻¹
same,KD ratio (KD pH 5/KD pH 7),[5],1.09
same,kd ratio (kd pH 5/kd pH 7),[5],0.79
same,Kd,[6],2.5 nM
same,koff,[6],0.0004 s⁻¹
same,kon,[6],160000 M⁻¹ s⁻¹
same,Kd,[7],1.5 nM
same,koff,[7],0.00037 s⁻¹
same,kon,[7],250000 M⁻¹ s⁻¹
same,Kd,[8],1.4 nM
same,koff,[8],0.00038 s⁻¹
same,kon,[8],260000 M⁻¹ s⁻¹
same,Kd,[9],5.6 nM
same,koff,[9],0.0013 s⁻¹
same,kon,[9],230000 M⁻¹ s⁻¹
same,Average CSI-BLI ΔResponse,[10],-0.03 nm
B2,apparent Kd (pooled screen),[1],1.4 nM
same,Kd,[2],3.8 nM
same,"IC50, LPS+IL-12 dependent IFNg production, human whole blood",[3],0.7 nM
same,"y-max, LPS+IL-12 dependent IFNg production, human whole blood",[3],98%
same,KD ratio (KD pH 5/KD pH 7),[5],1.08
same,kd ratio (kd pH 5/kd pH 7),[5],0.63
same,apparent Kd (pooled screen),[6],2 nM
same,apparent koff (pooled screen),[6],0.00021 s⁻¹
same,apparent kon (pooled screen),[6],100000 M⁻¹ s⁻¹
same,apparent Kd (pooled screen),[7],1.6 nM
same,apparent koff (pooled screen),[7],0.00035 s⁻¹
same,apparent kon (pooled screen),[7],220000 M⁻¹ s⁻¹
same,apparent Kd (pooled screen),[8],1.5 nM
same,apparent koff (pooled screen),[8],0.00036 s⁻¹
same,apparent kon (pooled screen),[8],240000 M⁻¹ s⁻¹
same,apparent Kd (pooled screen),[9],1.3 nM
same,apparent koff (pooled screen),[9],0.00039 s⁻¹
same,apparent kon (pooled screen),[9],300000 M⁻¹ s⁻¹
same,Average CSI-BLI ΔResponse,[10],0.02 nm
B3,"Average IC50, LPS+IL-12 dependent IFNg production, human whole blood",[11],1.04 nM
same,"Average IC50, IFNg, Crohn's disease LPLs, IL-18+IL-12",[12],18.3 nM
same,"Average IC50, IFNg, healthy (non-IBD) LPLs, IL-18+IL-12",[12],39.8 nM
same,"Average IC50, IFNg, ulcerative colitis LPLs, IL-18+IL-12",[12],16.5 nM
same,"IC50, IFNg, Crohn's disease LPLs, IL-18+IL-12, replicate 1",[12],3.82 nM
same,"IC50, IFNg, Crohn's disease LPLs, IL-18+IL-12, replicate 2",[12],15.4 nM
same,"IC50, IFNg, Crohn's disease LPLs, IL-18+IL-12, replicate 3",[12],89.9 nM
same,"IC50, IFNg, Crohn's disease LPLs, IL-18+IL-12, replicate 4",[12],9.47 nM
same,"IC50, IFNg, Crohn's disease LPLs, IL-18+IL-12, replicate 5",[12],19.6 nM
same,"IC50, IFNg, Crohn's disease LPLs, IL-18+IL-12, replicate 6",[12],5.68 nM
same,"IC50, IFNg, Crohn's disease LPLs, IL-18+IL-12, replicate 7",[12],0.9 nM
same,"IC50, IFNg, Crohn's disease LPLs, IL-18+IL-12, replicate 8",[12],1.33 nM
same,"IC50, IFNg, healthy (non-IBD) LPLs, IL-18+IL-12, replicate 1",[12],12.8 nM
same,"IC50, IFNg, healthy (non-IBD) LPLs, IL-18+IL-12, replicate 2",[12],9.57 nM
same,"IC50, IFNg, healthy (non-IBD) LPLs, IL-18+IL-12, replicate 3",[12],44.8 nM
same,"IC50, IFNg, healthy (non-IBD) LPLs, IL-18+IL-12, replicate 4",[12],132 nM
same,"IC50, IFNg, healthy (non-IBD) LPLs, IL-18+IL-12, replicate 5",[12],0.0116 nM
same,"IC50, IFNg, ulcerative colitis LPLs, IL-18+IL-12, replicate 1",[12],34.4 nM
same,"IC50, IFNg, ulcerative colitis LPLs, IL-18+IL-12, replicate 2",[12],10.8 nM
same,"IC50, IFNg, ulcerative colitis LPLs, IL-18+IL-12, replicate 3",[12],10.3 nM
same,"IC50, IFNg, ulcerative colitis LPLs, IL-18+IL-12, replicate 4",[12],2.63 nM
same,"IC50, IFNg, ulcerative colitis LPLs, IL-18+IL-12, replicate 5",[12],0.0024 nM
same,"IC50, IFNg, ulcerative colitis LPLs, IL-18+IL-12, replicate 6",[12],0.402 nM
same,"IC50, IFNg, ulcerative colitis LPLs, IL-18+IL-12, replicate 7",[12],56.7 nM
same,Kd,[13],0.13 nM
same,koff,[13],3.7e-05 s⁻¹
same,kon,[13],290000 M⁻¹ s⁻¹
